Laboratory results reported in patent publication CN115969997A.

Molecular target: CLDN18.2 (亲和力检测, Table 2 ka/kd/KD)
Test: affinity measurement, method not described

- Kd: 2.89 nM
Substance: IMAB362 (antibody)
